Results reported in US20080152587A1 (Amgen, published 2008).
Where a chain is given by its changes, count along the chain named.

T1: mouse uPAR on the surface of NCTC L929 cells (mouse, UniProt P35456 24-298)
T1 construct: whole, on cells; also called cell surface mouse uPAR
T1 sequence (looked up): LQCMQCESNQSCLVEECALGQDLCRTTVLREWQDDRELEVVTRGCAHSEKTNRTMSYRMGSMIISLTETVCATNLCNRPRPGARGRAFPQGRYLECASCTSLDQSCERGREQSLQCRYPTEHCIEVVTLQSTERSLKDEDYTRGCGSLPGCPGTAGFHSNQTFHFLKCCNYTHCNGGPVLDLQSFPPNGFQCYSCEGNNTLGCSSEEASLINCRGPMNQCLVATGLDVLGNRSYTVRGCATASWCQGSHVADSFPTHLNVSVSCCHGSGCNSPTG

T2: murine uPAR (form not stated) (mouse, UniProt P35456 24-297, limits assumed)
T2 construct: also called mouse uPAR
T2 sequence (looked up): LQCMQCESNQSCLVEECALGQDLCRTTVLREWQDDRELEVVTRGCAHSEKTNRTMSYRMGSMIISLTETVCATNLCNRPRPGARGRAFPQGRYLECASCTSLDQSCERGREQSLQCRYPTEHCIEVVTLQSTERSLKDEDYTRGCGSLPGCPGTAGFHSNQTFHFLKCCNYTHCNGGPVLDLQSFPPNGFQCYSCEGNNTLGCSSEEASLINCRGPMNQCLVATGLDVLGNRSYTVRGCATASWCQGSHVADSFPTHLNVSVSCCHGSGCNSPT

T3: human Ly6e with a myc tag, expressed in HEK293T cells (human, UniProt Q16553 21-101)
T3 construct: whole, on cells; not shown: myc tag fused on the molecule
T3 sequence (looked up): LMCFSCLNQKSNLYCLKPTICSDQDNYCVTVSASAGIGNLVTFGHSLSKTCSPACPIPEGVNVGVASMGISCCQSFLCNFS

B1: anti-uPAR monoclonal antibody 4.50.1 (antibody, V domains shown)
VH: QVQLVESGGGVVQPGRSLRLSCAASGFTFSSYGMHWVRQAPGKGLEWVAVIWYDGSNKDYADSVKGRFTISRDNSKNTLYLQMNSLRAEDTAVYYCARDMIVVVITYAFDIWGQGTMVTVSS
VL: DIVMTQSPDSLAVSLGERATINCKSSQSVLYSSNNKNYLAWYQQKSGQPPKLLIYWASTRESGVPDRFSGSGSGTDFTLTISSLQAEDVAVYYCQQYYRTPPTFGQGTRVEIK
notes: also called 4.50.2
B2: anti-uPAR monoclonal antibody 4.13.1 (antibody, V domains shown)
VH: EVQLLESGGGLVQPGGSLRLSCAASGFTFSSYAMSWVRQAPGKGLEWVLGISGSGGSTYYADSVKGRFTISRDNSKNTLYLQMNSLRAEDTAVYYCAKDGYGDYVGWYFDLWGRGTLVTVSS
VL: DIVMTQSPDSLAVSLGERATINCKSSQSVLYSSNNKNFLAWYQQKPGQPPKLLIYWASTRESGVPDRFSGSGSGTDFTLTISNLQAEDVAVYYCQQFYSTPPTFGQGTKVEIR
notes: also called 4.13.2
B3: anti-uPAR monoclonal antibody 1.4.2 (antibody, V domains shown)
VH: EVQLVESGGGLVQPGGSLRLSCAASGFTFSSYDMHWVRQATGKGLEWVSAIGTAGDTYYPGSVKGRFTISRENAKNSLYLQMNSLRAGDTAVYYCAREGDYSNYFTMVRGVTYGMDVWGQGTTVTVSS
VL: DIQLTQSPSSLCASVGDRITITCRASQGISKYLAWFQQKPGKAPKSLIYGASSLQSGVPAKFSGSGSGTDFTLTISSLQPEDFATYYCQQYNSYPLTFGGGTKVEIK
B4: anti-uPAR monoclonal antibody 1.61.1 (antibody, V domains shown)
VH: B3 VH with M107R
VL: B3 VL with L4M, C12S, I19V, A60S
B5: anti-uPAR monoclonal antibody 1.100.1 (antibody, V domains shown)
VH: EVQLVESGGGLLQPGGSLRLSCAASGFTVRNNYMNWVRQAPGKGLEWVSVIYTGGSTYYADSVKGRFTISRDNSKNTLYLQMNSLRAEDTAVYYCAREGKLAGMDVWGQGTTVTVSS
VL: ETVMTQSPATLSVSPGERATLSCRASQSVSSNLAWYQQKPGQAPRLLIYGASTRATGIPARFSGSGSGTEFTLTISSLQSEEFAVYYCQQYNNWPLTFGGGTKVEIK
B6: anti-uPAR monoclonal antibody 3.8.3 (antibody, V domains shown)
VH: EVQLVESGGGLVQPGGSLRLSCAASGFTFSSYWMSWVRQAPGKGLEWVANIKQHGSEKYYVDSVKGRFTISRDNAKNSLYLQMNSLRAEDTAVYYCAREEAYYYDNSGYYWYFDLWARGTLVTVSS
VL: DIQMTQSPSSVSASIGDRVTITCRASQGISSWLAWYQQKPGKTPKLLIYAASSLQSGVPSRFSGSGSGTDFTLTISSLQPEDFATYYCQQADSFPWTFGQGTKVEIK
B7: anti-uPAR monoclonal antibody 1.113.2 (antibody, V domains shown)
VH: QVQLVESGGGVVQPGRSLRLSCAASGFTFSSYGMHWVRQAPGKGLEWVAVIWYDGSNKYYADSVKGRFTISRDNSKNTLYLQMNSLRAEDTAVYYCARDLAALYYYYGMHVWGQGTTVTVSS
VL: EIVMTQSPATLSVSPGERATLSCRASQSFSSNLAWYQQKPGQAPRLLIYGASTRATGIPARFSGSGSGTEFTLTISSLQSEDFAVYYCQQNNNWPRTFGQGTKVEIK
B8: anti-uPAR monoclonal antibody 1.41.1 (antibody, V domains shown)
VH: QVQLVESGGGVVQPGRSLRLSCAAPGFTFSSYGMHWVRQAPGKGLEWVAVIWYDGSQKYYADSVKGRFTISRDNSKNTLYLQMNSLRAEDTAVYYCARGMTYYYYYGMDVWGQGTTVTVSS
VL: B7 VL with T10I, F29V, N32K, A34D, N91Y

Each binder was assayed against T4, human urokinase-type plasminogen activator receptor (uPAR, CD87), cell-bound (human, UniProt Q03405 23-305) (assay: cell-based or functional assay).
T4 sequence (Q03405 23-305): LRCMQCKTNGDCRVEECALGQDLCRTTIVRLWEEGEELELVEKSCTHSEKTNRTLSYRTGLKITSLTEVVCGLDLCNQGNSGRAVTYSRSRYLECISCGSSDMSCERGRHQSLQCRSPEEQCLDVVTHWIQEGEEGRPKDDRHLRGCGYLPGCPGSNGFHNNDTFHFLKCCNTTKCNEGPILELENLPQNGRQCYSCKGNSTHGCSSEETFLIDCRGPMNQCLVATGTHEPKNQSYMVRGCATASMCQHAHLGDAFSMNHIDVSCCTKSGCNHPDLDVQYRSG

Row | inhibition of plasminogen activation on U937 cells [%] | Binder
1 | > 90 | B1
2 | > 90 | B2

Molecular target: T4, human urokinase-type plasminogen …
Assay: cell-based or functional assay
Remark: another data set of the same source

Row | Plasminogen activation inhibition (IC50, ug/ml) [µg/mL] | Binder
3 | 0.075 | B3
4 | 0.119 | B4
5 | 0.061 | B5
6 | 0.328 | B6
7 | 0.104 | B1
8 | 0.775 | B7
9 | 0.181 | B8
10 | 0.077 | B2

What follows are binders tested against T5, soluble recombinant human uPAR/His6 (R&D Systems, Cat. # 807-UK-100) (human, UniProt Q03405 23-303) (assay: low resolution Biacore).
T5 construct: range 1-303; Bought protein; also called soluble uPAR; hu-uPAR
T5 sequence (Q03405 other isoform, or with tags, fused parts or gaps limits assumed, form in doubt): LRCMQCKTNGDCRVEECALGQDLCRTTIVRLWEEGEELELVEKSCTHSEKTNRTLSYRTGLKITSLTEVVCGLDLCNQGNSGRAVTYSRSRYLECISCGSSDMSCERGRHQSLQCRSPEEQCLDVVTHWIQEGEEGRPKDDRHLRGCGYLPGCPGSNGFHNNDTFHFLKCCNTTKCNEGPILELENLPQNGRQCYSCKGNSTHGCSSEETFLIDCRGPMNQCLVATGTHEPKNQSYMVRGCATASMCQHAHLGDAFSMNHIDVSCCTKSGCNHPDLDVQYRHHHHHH
Procedure: (§1) A high-density goat anti-human antibody surface over a CM5 Biacore™ chip was prepared using routine amine coupling. […] Each mAb was captured on a separate flow cell using a 30-second contact time at 10 μL/min followed by a 5-minute wash at a 100 μL/min flow rate for stabilization of the mAb baseline. […] All antigen samples were prepared in the running buffer.

Row | Kd [nM] | Binder
11 | 8.7 | B3
12 | 2.7 | B4
13 | 2.3 | B5
14 | 3.1 | B6
15 | 2.2 | B1
16 | 4.6 | B7
17 | 3.9 | B8
18 | 12.6 | B2

What follows are binders tested against T1, mouse uPAR on the surface of NCTC L929 … (assay: FACS, NCTC L929 mouse cells).
Procedure: (§2) To make the mouse cross-reactivity results conclusive, direct binding of the mAbs to cell-bound mouse uPAR was measured using FACS analysis. The mouse cell line derived from the connective tissue, NCTC L929, was employed for FACS analysis. The harvested cells were resuspended at 50,000 cells/well using FACS buffer into a V-bottom plate which was put on ice. […] After washing, Cy5-labeled goat anti-human IgG Fc at 5 μg/ml and 7AAD at 5 μg/ml was added. The mixtures were incubated for 15 min on ice, washed and resuspended in cold FACS buffer for FACS analysis.

Row | binding result | Binder
19 | no binding (tested: 6.25 µg/ml) | B3
20 | no binding (tested: 6.25 µg/ml) | B4
21 | no binding (tested: 6.25 µg/ml) | B5
22 | no binding (tested: 6.25 µg/ml) | B1
23 | no binding (tested: 6.25 µg/ml) | B7
24 | no binding (tested: 6.25 µg/ml) | B8
25 | no binding (tested: 6.25 µg/ml) | B2

The binders below were run against T2, murine uPAR (form not stated) (assay: summary column Murine X-reactivity).

Row | binding result | Binder
26 | no binding | B3
27 | no binding | B4
28 | no binding | B5
29 | no binding | B6
30 | no binding | B1
31 | no binding | B7
32 | no binding | B8
33 | no binding | B2

What follows are binders tested against T1, mouse uPAR on the surface of NCTC L929 … (assay: FACS, NCTC L929 mouse cells, mAb 6.25 µg/ml).
Procedure: as §2

Row | X Geo Mean | Binder
34 | 12.4 | B3
35 | 9.7 | B4
36 | 9.89 | B5
37 | 8.92 | B1
38 | 10.2 | B7
39 | 9.59 | B8
40 | 11.2 | B2

The binders below were run against T3, human Ly6e with a myc tag, expressed in … (assay: FACS, HEK293T cells expressing Ly6e, supernatant 1:2).
Procedure: The reactivity of the antibodies to the HEK293T transfected to express Ly6e was determined by FACS analysis, using 1:2 hybridoma supernatants, and probed with goat anti-human γ chain conjugated with Cy5 (2.5 mg/ml, Jackson Immune Research). Binding of an anti-myc antibody (10 μg/ml, Invitrogen) to the transfectants served as a positive control, and binding of this antibody to the (Ly6e negative) parental cells served as the negative control.

Row | binding result | Binder
41 | no binding (tested: GeoMean ratio 1.95) | B3
42 | no binding (tested: GeoMean ratio 1.95) | B4
43 | no binding (tested: GeoMean ratio 1.95) | B5
44 | no binding (tested: GeoMean ratio 1.95) | B6
45 | binds | B1
46 | no binding (tested: GeoMean ratio 1.95) | B7
47 | no binding (tested: GeoMean ratio 1.95) | B8
48 | no binding (tested: GeoMean ratio 1.95) | B2

These binders were tested against T4, human urokinase-type plasminogen … (assay: FACS competition with FITC-tc-uPA, line material).
Source text: (§3) Briefly, murine fibroblast L929 cells (ATCC) were transfected to express human uPAR.

Row | Human uPAR/uPA binding inhibition (%, line material) [%] | Binder
49 | 69 | B3
50 | 69 | B4
51 | 78 | B5
52 | 70 | B6
53 | 67 | B1
54 | 75 | B7
55 | 74 | B8
56 | 78 | B2

Each binder was assayed against T5, soluble recombinant human uPAR/His6 … (assay: limited antigen ELISA, uPAR coat 20 ng/mL, sample 1:25).
Procedure: (§4) ELISA plates were coated with a lower amount ofuPAR in comparison with the High Antigen Quantitation assay described below (320, 160, 80, 40 and 20 ng/mL). Samples containing one concentration of antibody (Ab) (1:25 dilution) were incubated overnight to allow Ab binding to approach equilibrium.

Row | LA at 20 ng/ml | Binder
57 | 0.16 | B3
58 | 0.27 | B4
59 | 0.27 | B5
60 | 0.67 | B6
61 | 0.21 | B1
62 | 0.53 | B7
63 | 0.27 | B8
64 | 0.09 | B2

These binders were tested against T5, soluble recombinant human uPAR/His6 … (assay: limited antigen ELISA, uPAR coat 80 ng/mL, sample 1:25).
Procedure: as §4

Row | LA at 80 ng/ml | Binder
65 | 0.66 | B3
66 | 1.99 | B4
67 | 2.15 | B5
68 | 2.57 | B6
69 | 0.64 | B1
70 | 1.8 | B7
71 | 1.48 | B8
72 | 0.24 | B2

These binders were tested against T4, human urokinase-type plasminogen … (assay: FACS, B300.19 cells expressing human uPAR, anti-human gamma Cy5).

Row | gCy5 Geo Mean Pos Cells | Binder
73 | 419 | B3
74 | 559 | B4
75 | 521 | B5
76 | 451 | B6
77 | 402 | B1
78 | 511 | B7
79 | 422 | B8
80 | 28.2 | B2

These binders were tested against T5, soluble recombinant human uPAR/His6 … (assay: low resolution Biacore, mAb captured by goat anti-human, hu-uPAR 312 nM;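 also: surface plasmon resonance on a CM5 chip with goat anti-human antibody surface made by amine coupling, each mAb from supernatant captured per flow cell, kinetics fitted including mass transport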).
Procedure: as §1
A mass transport coefficient was used in fitting the data.

Row | Kd [nM] | koff [s⁻¹] | kon [M⁻¹ s⁻¹] | Binder
81 | 8.7 | 0.00096 | 110000 | B3
82 | 2.7 | 0.00025 | 94000 | B4
83 | 2.3 | 0.00017 | 75000 | B5
84 | 3.1 | 6.8e-05 | 22000 | B6
85 | 2.2 | 0.00026 | 120000 | B1
86 | 4.6 | 0.00013 | 28000 | B7
87 | 3.9 | 0.00013 | 33000 | B8
88 | 12.6 | 0.0012 | 95000 | B2

Each binder was assayed against T4, human urokinase-type plasminogen … (assay: FACS competition, FITC-tc-uPA on L929 cells expressing human uPAR, supernatant 1:2).
Source text: as §3

Row | uPA/uPAR binding Inhibition % [%] | Binder
89 | 69 | B3
90 | 69 | B4
91 | 78 | B5
92 | 70 | B6
93 | 67 | B1
94 | 75 | B7
95 | 74 | B8
96 | 78 | B2

These binders were tested against T4, human urokinase-type plasminogen … (assay: FACS, U937 cells, mAb 5 µg/ml on ice, alexa647 goat anti-human F(ab), not stripped).
Procedure: A cell suspension containing 100,000 cells was pipetted into each well of a V-bottom plates in duplicate. Two V-bottom plates were prepared, one to be kept at 37° C. during internalization with antibody complex, and the other to be incubated at 4° C. Each of the eight uPAR mAbs was incubated with U937 cells at 5 μg/ml on ice for 15 min. Incubation on ice was necessary to prevent internalization of the primary mAbs. The cells were then washed with cold FACS buffer. Cells were subsequently incubated on ice in 100 μl of 5 μg/ml alexa647-labelled goat anti-humanF(ab) (Invitrogen catalogue number A21249) in cold FACS buffer for 15 min. This allowed the goat FAB bind to the bound uPAR mAbs without permitting any internalization. After a 15 minute incubation on ice, one plate was kept on ice, while the other plate was incubated at 37° C. for 1 hour.
Following the 1 hr incubation with the mAb-FAB complex, the cells were washed twice with cold 5% FACS buffer, and 200 μl of Tris(2-carboxyethyl)phosphine HCl (TCEP) was added to each well as a stripping agent. The plates were both incubated with TCEP on ice for 1 hour, followed by washing and resuspending with FACS buffer. 4 μl of 7-Amino-Actinomycin D (7AAD) was added to each well, followed by 10 min incubation on ice before FACS analysis was conducted.

Row | geo mean cold - TCEP | Binder
97 | 42.1 | B1
98 | 37.4 | B2

What follows are binders tested against T6, cynomolgus monkey uPAR, cell-bound (cynomolgus monkey, UniProt Q9GK78 23-305) (assay: FACS, GeoMean; cynomolgus uPAR expressed on 293T cells; antibody concentration not given).
T6 construct: whole, on cells; also called cyno-uPAR
T6 sequence (Q9GK78 23-305): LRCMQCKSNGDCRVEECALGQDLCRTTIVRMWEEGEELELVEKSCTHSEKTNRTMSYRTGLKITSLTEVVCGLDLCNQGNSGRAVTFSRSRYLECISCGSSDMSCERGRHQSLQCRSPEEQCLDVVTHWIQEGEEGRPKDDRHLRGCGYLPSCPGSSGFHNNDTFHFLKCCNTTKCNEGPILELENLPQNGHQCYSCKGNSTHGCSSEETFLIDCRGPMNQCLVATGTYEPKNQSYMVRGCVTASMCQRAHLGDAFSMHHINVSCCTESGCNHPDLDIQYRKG

Row | binding result | Binder
99 | binds | B3
100 | binds | B4
101 | binds | B5
102 | binds | B1
103 | binds | B7
104 | binds | B8
